Assay results taken from ChEMBL document CHEMBL4024756, “Identification of 4-Phenoxyquinoline Based Inhibitors for L1196M Mutant of Anaplastic Lymphoma Kinase by Structure-Based Design” (J Med Chem, 2017).

What was measured:
Details in all cases: Homo sapiens
[1] = substrate: Cc1ccc(Oc2ccnc3cc(-c4cnn(C5CCNCC5)c4)ccc23)cc1
[2] = substrate: Cc1ccc(Oc2ccnc3cc(-c4cnn(C5CCNCC5)c4)ccc23)cc1; remark: listed apart in the source
[3] = substrate: Cc1ccc(Oc2ccnc3cc(-c4cnn(C5CCNCC5)c4)ccc23)cc1; remark: listed apart in the source
[4] = substrate: Cc1ccc(Oc2ccnc3cc(-c4cnn(C5CCNCC5)c4)ccc23)cc1; remark: listed apart in the source
[5] = substrate: Cc1ccc(Oc2ccnc3cc(-c4cnn(C5CCNCC5)c4)ccc23)cc1; remark: listed apart in the source

B1: ALK tyrosine kinase receptor (Homo sapiens), Q9UM73 L1196M (protein)
chain: MGAIGLLWLLPLLLSTAAVGSGMGTGQRAGSPAAGPPLQPREPLSYSRLQRKSLAVDFVVPSLFRVYARDLLLPPSSSELKAGRPEARGSLALDCAPLLRLLGPAPGVSWTAGSPAPAEARTLSRVLKGGSVRKLRRAKQLVLELGEEAILEGCVGPPGEAAVGLLQFNLSELFSWWIRQGEGRLRIRLMPEKKASEVGREGRLSAAIRASQPRLLFQIFGTGHSSLESPTNMPSPSPDYFTWNLTWIMKDSFPFLSHRSRYGLECSFDFPCELEYSPPLHDLRNQSWSWRRIPSEEASQMDLLDGPGAERSKEMPRGSFLLLNTSADSKHTILSPWMRSSSEHCTLAVSVHRHLQPSGRYIAQLLPHNEAAREILLMPTPGKHGWTVLQGRIGRPDNPFRVALEYISSGNRSLSAVDFFALKNCSEGTSPGSKMALQSSFTCWNGTVLQLGQACDFHQDCAQGEDESQMCRKLPVGFYCNFEDGFCGWTQGTLSPHTPQWQVRTLKDARFQDHQDHALLLSTTDVPASESATVTSATFPAPIKSSPCELRMSWLIRGVLRGNVSLVLVENKTGKEQGRMVWHVAAYEGLSLWQWMVLPLLDVSDRFWLQMVAWWGQGSRAIVAFDNISISLDCYLTISGEDKILQNTAPKSRNLFERNPNKELKPGENSPRQTPIFDPTVHWLFTTCGASGPHGPTQAQCNNAYQNSNLSVEVGSEGPLKGIQIWKVPATDTYSISGYGAAGGKGGKNTMMRSHGVSVLGIFNLEKDDMLYILVGQQGEDACPSTNQLIQKVCIGENNVIEEEIRVNRSVHEWAGGGGGGGGATYVFKMKDGVPVPLIIAAGGGGRAYGAKTDTFHPERLENNSSVLGLNGNSGAAGGGGGWNDNTSLLWAGKSLQEGATGGHSCPQAMKKWGWETRGGFGGGGGGCSSGGGGGGYIGGNAASNNDPEMDGEDGVSFISPLGILYTPALKVMEGHGEVNIKHYLNCSHCEVDECHMDPESHKVICFCDHGTVLAEDGVSCIVSPTPEPHLPLSLILSVVTSALVAALVLAFSGIMIVYRRKHQELQAMQMELQSPEYKLSKLRTSTIMTDYNPNYCFAGKTSSISDLKEVPRKNITLIRGLGHGAFGEVYEGQVSGMPNDPSPLQVAVKTLPEVCSEQDELDFLMEALIISKFNHQNIVRCIGVSLQSLPRFILMELMAGGDLKSFLRETRPRPSQPSSLAMLDLLHVARDIACGCQYLEENHFIHRDIAARNCLLTCPGPGRVAKIGDFGMARDIYRASYYRKGGCAMLPVKWMPPEAFMEGIFTSKTDTWSFGVLLWEIFSLGYMPYPSKSNQEVLEFVTSGGRMDPPKNCPGPVYRIMTQCWQHQPEDRPNFAIILERIEYCTQDPDVINTALPIEYGPLVEEEEKVPVRPKDPEGVPPLLVSQQAKREEERSPAAPPPLPTTSSGKAAKKPTAAEISVRVPRGPAVEGGHVNMAFSQSNPPSELHKVHGSRNKPTSLWNPTYGSWFTEKPTKKNNPIAKKEPHDRGNLGLEGSCTVPPNVATGRLPGASLLLEPSSLTANMKEVPLFRLRHFPCGNVNYGYQQQGLPLEAATAPGAGHYEDTILKSKNSMNQPGP
Km [1]: 298 µM | Km [2]: 32.6 µM | Km [3]: 58.8 µM | Km [4]: 860 µM | Km [5]: 94.6 µM
